Assay results: article PMC9171807 (Proceedings of the National Academy of Sciences of the …, 2022)
Substitutions are numbered along the chain they refer to. Values belong to the binder of their own block, whether it stands above or below them.

Assays:
[1] = biological target: T1, 17-residue MSLN C terminus peptide (human); assay: crystal structure
T1 chain: IPNGYLVLDLSMQEALS

MSLN 296 to 591 = MSLN 296 to 591 (Homo sapiens (Human)., UniProt Q13421-3); assay: BLI
MSLN–585-his = MSLN–585-his (Homo sapiens (Human)., UniProt Q13421-3); assay: ELISA

binding result [1]: binds
binding result (MSLN 296 to 591): no binding
B1: Fab fragment of mAb 15B6 (Fab, V domains shown)
VH: EVQLQQSGPVLVKPGASVKISCKASGYSFTGYYMHWVRQSNGKSLEWIGRINPYTGVPSYKHNFKDKASLTVDKSSSTAYMELHSLTSEDSAVYYCARELGGYWGQGTTLTVSS
VL: QAVVTQESALTTSPGETVTLTCRSSTGAVTTGNYPNWVQEKPDHLFTGLIAGTNNRAPGVPARFSGSLIGDKAALTITGAQTEDEAIYFCALWFSSHWVFGGGTKLTVL

binding result (MSLN–585-his): no binding
B2: monoclonal antibody (mAb) 15B6 (antibody, V domains shown)
VH: B1 VH with N41L, G42V, S44R
VL: B1 VL
